From patent US12503518B2, “Heparanase-neutralizing A54 monoclonal antibody” (TECHNION RESEARCH & DEVELOPMENT FOUNDATION LIMITED, priority 2020, dated 2025)

Legend:
[1] = system: EMT-6 luciferase cells; test: EMT-6 breast carcinoma tumor growth in Balb/c mice; type: in vivo; conditions: 360 μg/mouse, 2 times/week; vs PBS
Procedure: In subsequent studies, the effect of mAb A54 on breast carcinoma tumor growth was investigated. Balb/c mice (n=3) were inoculated in the mammary fad pad with EMT-6 luciferase cells (0.5×10^6), and mice were treated with A54 mAb (360 μg/mouse, 2 times/week) or PBS as control. Tumor growth was evaluated by IVIS imaging (FIGS. 9A and 9B) and quantification of luciferase signals is shown graphically (FIG. 9C). At the end of the experiment, tumors were resected and weighted (FIG. 9D).

[2] = system: Luc-U87 human glioma cells; test: U87 glioma tumor growth in NOD/SCID mice, IVIS imaging; type: in vivo; conditions: s.c. tumors, 500 μg/mouse, 3 times/week; vs PBS; P=0.04
Procedure: U87 glioma. Cells from exponential cultures of Luciferase labeled U87 glioma cells were detached with trypsin/EDTA, washed with PBS and brought to a concentration of 5×10^7 cells/ml. Cell suspension (5×10^6/0.1 ml) was inoculated subcutaneously at the right flank of 5-weeks old female SCID/Beige mice (n=7). Three days after cell inoculation, mice are randomly assigned to 2 cohorts (5-10 mice each) receiving (a) vehicle (PBS); and (b) A54 mAb (500 μg/mouse, 3 times/week). Tumor development is inspected (once a week) by IVIS imaging following administration of luciferin (see below) as described (Barash et al. FASEB J 2010; 24:1239-48, Barash et al., J Natl Cancer Inst. 110:1102-1114, 2018). […]
IVIS imaging. […] Imaging is performed in real time, is non-invasive and provides quantitative data. […] Light emitted from the bioluminescent cells is detected by the IVIS camera system with images quantified for tumor burden using a log-scale color range set at 5×10^4 to 1×10^7 and measurement of total photon counts per second (PPS) using Living Image software (Xenogen).
Similarly, Luc-U87 human glioma cells (5×10^6/0.1 ml) were inoculated subcutaneously (s.c.) at the right flank of 5-weeks old female NOD/SCID mice (n=5). […] Tumor growth was evaluated by IVIS imaging (FIGS. 5D and 5E) and quantification of luciferase signals is shown graphically (FIG. 5F).

[3] = molecular target: T1, recombinant human heparanase (Homo sapiens, UniProt Q9Y251); test: heparanase activity assay: release of HS degradation fragments from 35S-labeled ECM; type: biochemical
T1 construct: purified recombinant active heparanase (200 ng) was pre incubated with the various hybridoma supernatants; recombinant active heparanase (200 ng) was preincubated with control mouse IgG or purified mAb A54
T1 sequence (Q9Y251 158-543 limits assumed): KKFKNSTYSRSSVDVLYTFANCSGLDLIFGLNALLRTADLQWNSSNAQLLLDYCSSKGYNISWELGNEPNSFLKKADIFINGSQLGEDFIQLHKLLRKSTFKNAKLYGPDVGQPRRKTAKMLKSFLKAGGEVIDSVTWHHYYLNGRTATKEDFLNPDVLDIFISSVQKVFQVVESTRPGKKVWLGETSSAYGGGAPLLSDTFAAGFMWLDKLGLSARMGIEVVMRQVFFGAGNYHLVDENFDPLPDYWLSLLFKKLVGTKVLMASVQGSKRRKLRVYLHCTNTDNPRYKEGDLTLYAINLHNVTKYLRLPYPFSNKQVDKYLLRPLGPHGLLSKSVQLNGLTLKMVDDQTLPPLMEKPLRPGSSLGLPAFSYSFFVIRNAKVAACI
T1 sequence (Q9Y251 36-109 limits assumed): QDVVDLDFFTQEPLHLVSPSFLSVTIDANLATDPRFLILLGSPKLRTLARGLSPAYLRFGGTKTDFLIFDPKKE
Procedure: Cell lysates, heparanase activity and protein blotting. Preparation of cell lysates, protein blotting, and measurement of heparanase enzymatic activity were carried out as described (Arvatz et al. Faseb J 2011; 24(12):4969-76). For inhibition studies, highly purified recombinant heparanase (200 ng) was pre-incubated with the indicated antibody ([…]) for 30 min on ice under neutral pH conditions (pH 7.2) before being added to ^35S-labelled ECM, used as a naturally produced substrate for heparanase (Gingis-Velitski et al. 2007, ibid.).
ECM degradation assay. […] More detail about the preparation of this substrate and its use for the heparanase assay can be found in: Current Protocols in Cell Biology (Vlodavsky 2001; pp. 10.4.1-10.4.14). Briefly, sulfate [^35S] labeled ECM coating the surface of 35 mm tissue culture dishes, is incubated (4 h, 37° C., pH 6.0, 1 ml final volume) with recombinant human heparanase (200 ng/ml) in the absence and presence of the A54 mAb. The reaction mixture contains: 50 mM NaCl, 1 mM DTT, 1 mM CaCl2), and 10 mM buffer Phosphate-Citrate, pH 6.0. To evaluate the occurrence of proteoglycan degradation, the incubation medium is collected and applied for gel filtration on Sepharose 6B columns (0.9×30 cm). Fractions (0.2 ml) are eluted with PBS and counted for radioactivity. […]
In order to select the hybridoma clone that best inhibits heparanase enzymatic activity, supernatants of the various hybridomas, raised against the 65 kDa latent heparanase protein, were collected, pre-incubated with recombinant heparanase and examined for the capacity to inhibit the release of heparan sulfate (HS) degradation fragments from sulfate labeled ECM. […] The mixture was then applied onto ^35S-labeled ECM-coated dishes and heparanase activity was determined as described under “Materials and Methods” above.
Next, the ability of purified mAb A54 to inhibit heparanase enzymatic activity was examined. […] The mixture was then applied onto dishes coated with ^35S-labeled ECM, and heparanase enzymatic activity was determined as described in ‘Methods’.

B1: mAb A54: heparanase-neutralizing murine monoclonal antibody, IgG1-Kappa; VH SEQ ID NO: 7, VL SEQ ID NO: 8; binds HBD-II of heparanase (antibody, listed as Mus musculus, V domains shown)
VH: QVQLQQSGAELAKPGASVRMSCKASGYTFTNYWMHWVKQRPGQGLEWIGYINPTTGYTEYNQKFKDKATLTADKSSSTAYMQLSSLTSEDSAVYYCARGGAGYDYDEDYAMDYWGQGTSVTVSS
VL: DIVLTQSPASLAVSLGQRATISCRASESVEYFGTSYMNWYQQKPGQPPKLLIYLASILESGIPARFSGSGSGTDFTLNIHPVEEEDAATYYCQQSNEDPYTFGGGTKLEIK
- breast carcinoma tumor growth (IVIS signal, tumor weight) [1]: attenuates the growth of breast carcinoma
- glioma tumor growth rate (IVIS luciferase signal) [2]: marked inhibition of the glioma tumor growth rate
- inhibition of the enzyme ([3]; 0.1 μg/ml antibody, preincubated 1 h with active heparanase (200 ng), FIG. 3B): ~75%
- inhibition of heparanase enzymatic activity ([3]; 1 μg/ml antibody, preincubated 1 h with active heparanase (200 ng), FIG. 3A): complete inhibition
- decrease in the amount of released sulfate labeled HS degradation products ([3]; hybridoma supernatant pre-incubated 2 h on ice with recombinant active heparanase (200 ng), FIG. 1): ~80%
